Data published in article PMC9491731 (PLoS Genetics, 2022).

Target: T1, WT CcdB (Controller of Cell Death protein B) (Escherichia coli (F-plasmid), UniProt P62554)
T1 construct: also called CcdB-WT
Assay: thermal shift assay (Sypro orange)
Details: both partners purified

## KAENQEGMAEVARFIEMNGSFADENRDW [CcdA peptide (45–72)]
  binding result: binds
